# From US20230028110A1 (ADAPTATE BIOTHERAPEUTICS, published 2023)
# Target: T1, L1 (DV1-GV4), soluble human Vδ1/Vγ4 γδ TCR heterodimer in leucine zipper format (human)
# T1 construct: Biotinylated in the DELFIA ranking; also called Antigen L1 (TRDV1/TRGV4); human DV1-GV4; not shown: gamma chain: Vγ4 (TRGV4) domain on a TCR constant region, leucine zipper, histidine tag
# Test: DELFIA, 100 nM biotinylated L1
# T1 sequence (main, as listed by the source): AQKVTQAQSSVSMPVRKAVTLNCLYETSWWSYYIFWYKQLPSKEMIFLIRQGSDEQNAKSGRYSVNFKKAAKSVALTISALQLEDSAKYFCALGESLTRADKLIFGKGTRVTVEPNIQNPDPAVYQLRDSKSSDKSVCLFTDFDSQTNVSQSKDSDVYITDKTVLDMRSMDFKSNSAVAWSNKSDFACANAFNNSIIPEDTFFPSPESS
row,DELFIA signal at 100 nM L1,Binder
1,29200 fluorescence units,"1138_P01_B09 (antibody, IgG1, V domains shown, IgG1) VH: EVQLLESGGGLVKPGGSLRLSCAASGFTFSDYYMSWIRQAPGKGLEWVSYISSSGSTIYYADSVKGRFTISRDNAKNSLYLQMNSLRAEDTAVYYCARHSWSDAFDIWGQGTLVTVSS VL: DIQMTQSPSSLSASVGDRVTITCQASQDISNYLNWYQQKPGKAPKLLIYDASNLETGVPSRFSGSGSGTDFTLTISSLQPEDFATYYCQQSYSTPLTFGGGTKVEIK"
2,22500 fluorescence units,"1245_P01_G06 (antibody, V domains shown, IgG1) VH: QVQLVESGGGLVKPGGSLRLSCAASGFTFSDYYMSWIRQAPGKGLEWVSYISSSGSTIYYADSVKGRFTISRDNAKNSLYLQMNSLRAEDTAVYYCARHSWNDAFDVWGQGTLVTVSS VL: not shown"
3,23800 fluorescence units,"1139_P01_E04 (antibody, IgG1, V domains shown, IgG1) VH: QVQLQQSGPGLVKPSQTLSLTCAISGDSVSSNSAAWNWIRQSPSRGLEWLGRTYYRSKWYNDYAVSVRSRITINPDTSKNQFSLQLNSVTPEDTAVYYCARSWNDAFDIWGQGTTVTVSS VL: DIVMTQSPSTLSASIGDRVTITCRAGQSISTWLAWYQQKPGKAPKLLIYDASSLESGVPLRFSGSGSGTDFTLTISSLQPEDFATYYCQQSYSTPLTFGGGTKVEIK"
4,18400 fluorescence units,"1245_P01_G09 (antibody, IgG1, V domains shown, IgG1) VH: QVQLQQSGPGLVKPSQTLSLTCAISGDSVSSNSAAWNWIRQSPSRGLEWLGRTYYGSKWYNEYALSVKSRIIINPDTSKNQFSLQLNSVTPEDTAVYYCARDYYYSMDVWGQGTLVTVSS VL: DIVMTQSPSTLSASIGDRVTITCRAGQSISTWLAWYQQKPGKAPKLLIYDASSLESGVPLRFSGSGSGTEFTLAISSLQPDDFATYYCQQSYSTPVTFGQGTKVEIK"
5,10400 fluorescence units,"1245_P02_F07 (antibody, IgG1, V domains shown, IgG1) VH: QVQLQQSGPGLVKPSQTLSLTCVISGDSVSSNSAAWNWIRQSPSRGLEWLGRTYYRSKWYNDYAVSVKSRITINPDTSKNQFSLQLNSVTPEDTAVYYCARDYYYSMDVWGQGTMVTVSS VL: DIQMTQSPSTLSASVGDRVTITCRASQSISSWLAWYQQKPGKAPKLLIYDASSLESGVPLRFSGSGSGTEFTLTISSLQPDDFATYYCQQSHSHPPTFGPGTKVDIK"
6,137000 fluorescence units,"1141_P01_E01 (antibody, IgG1, V domains shown, IgG1, lambda light chain) VH: QVQLVQSGAEVKKPGESLKISCKGSGYSFTSYWIGWVRQMPGKGLEWMGIIYPGDSDTRYSPSFQGQVTISADKSISTAYLQWSSLKASDTAMYYCARHQVDTRTADYWGQGTLVTVSS VL: SQSALTQPASVSGSPGQSVTISCTGTRSDVGGYNYVSWYQHHPGKAPKLMIYEVSNRPSGVSNRFSGSKSGNTASLTISGLQAEDEADYYCSSYTSTSTLVFGGGTKLTVL"
7,65300 fluorescence units,"1251_P02_C05 (antibody, IgG1, V domains shown, IgG1) VH: EVQLLESGGGLVQPGGSLRLSCAASGFTFSSYAMSWVRQAPGKGLEWVSAISGGGGTTYSSDSVKGRFTISRDNSKNTLYLQMNSLRAEDTAVYYCARDSGVAFDIWGQGTLVTVSS VL: DIQMTQSPSFLSASVGDRVTITCRASQNIRTWLAWYQQKPGRAPKLLIYDASSLESGVPSRFSGSGSGTDFTLTISSLQPEDFATYYCQQFKRYPPTFGLGTKVEIK"
8,1980 fluorescence units,"1252_P01_C08 (antibody, IgG1, V domains shown, IgG1, lambda light chain) VH: EVQLLESGGGLVQPGRSLRLSCAASGFTVSSNYMSWVRQAPGKGLEWVSVIYSGGSTYYADSVKGRFTISRDNSKNTLYLQMNSLRAEDTAVYYCASPIELGAFDIWGQGTLVTVSS VL: SSYELTQPPSVSVAPGKTARITCGGNNIGSQSVHWYQQKPGQAPMLVIYYDSDRPSGIPERFSGSNSGNTATLTISRVEAGDEADYYCQVWDSSSDHVVFGGGTKLTVL"

# Target: T1, L1 (DV1-GV4), soluble human Vδ1/Vγ4 γδ …
# Test: DELFIA ELISA, human antigen; heat map cell of the clone
row,ELISA signal (heat map),Binder
1,27800,"ADT1-7-22 (antibody, IgG1, V domains shown, IgG1) VH: EVQLVESGGGLVKPGGSLRLSCAASGFTFSDYYMSWIRQAPGKGLEWVSYISSSGSTIYYADSVKGRFTISRDNAKNSLYLQMNSLRAEDTAVYYCARDDYNDAFDIWGQGTLVTVSS VL: DIQMTQSPSSLSASVGDRVTIACRAGQSIGTYLNWYQQKPGKAPKLLIYVASSLQSGVPSRFSGSGSGTEFTLTISSLQPEDFATYYCQQSASELLTFGRGTKVEIK"
2,34800,"ADT1-7-18 (antibody, IgG1, V domains shown, IgG1) VH: EVQLVESGGGLVKPGGSLRLSCAASGFTFSDYYMSWIRQAPGKGLEWVSYISSSGSTIYYADSVKGRFTISRDNAKNSLYLQMNSLRAEDTAVYYCARVSYDDAFDIWGQGTLVTVSS VL: DIQMTQSPSSLSASVGDRVTIACRVGQSIGTYLNWYQQKPGKAPKLLIYVASSLQSGVPSRFSGSGSGTEFTLTISSLQPEDFATYYCQQSASELLTFGRGTKVEIK"
3,30200,"ADT1-7-17 (antibody, IgG1, V domains shown, IgG1) VH: EVQLVESGGGLVKPGGSLRLSCAASGFTFSDYYMSWIRQAPGKGLEWVSYISSSGSTIYYADSVKGRFTISRDNAKNSLYLQMNSLRAEDTAVYYCARIDYEDAFDIWGQGTLVTVSS VL: DIQMTQSPSSLSASVGDRVTIACRAGQSIGTYLNWYQQKPGKAPKLLIYVASSLQSGVPSRFSGSGSGTEFTLTISSLQPEDFATYYCQQSGSELLTFGRGTKVEIK"
4,37600,"ADT1-7-42 (antibody, IgG1, V domains shown, IgG1) VH: EVQLVESGGGLVKPGGSLRLSCAASGFTFSDYYMSWIRQAPGKGLEWVSYISSSGSTIYYADSVKGRFTISRDNAKNSLYLQMNSLRAEDTAVYYCARDDYEDAFDIWGQGTLVTVSS VL: DIQMTQSPSSLSASVGDRVTIACRAGQSIGTYLNWYQQKPGKAPKLLIYVASSLQSGVPSRFSGSGSGTEFTLTISSLQPEDFATYYCQQSSSELLTFGRGTKVEIK"
5,30400,"ADT1-7-15 (antibody, IgG1, V domains shown, IgG1) VH: EVQLVESGGGLVKPGGSLRLSCAASGFTFSDYYMSWIRQAPGKGLEWVSYISSSGSTIYYADSVKGRFTISRDNAKNSLYLQMNSLRAEDTAVYYCARDDYNDAFDIWGQGTLVTVSS VL: DIQMTQSPSSLSASVGDRVTIACRAGQSIGTYLNWYQQKPGKAPKLLIYVASSLQSGVPSRFSGSGSGTEFTLTISSLQPEDFATYYCQQSADTLLTFGRGTKVEIK"
6,34400,"ADT1-7-23 (antibody, IgG1, V domains shown, IgG1) VH: EVQLVESGGGLVKPGGSLRLSCAASGFTFSDYYMSWIRQAPGKGLEWVSYISSSGSTIYYADSVKGRFTISRDNAKNSLYLQMNSLRAEDTAVYYCARVDYNEAFDIWGQGTLVTVSS VL: DIQMTQSPSSLSASVGDRVTIACRAGQSIGTYLNWYQQKPGKAPKLLIYVASSLQSGVPSRFSGSGSGTEFTLTISSLQPEDFATYYCQQSYSGLDTFGRGTKVEIK"
7,30900,"ADT1-7-10 (antibody, IgG1, V domains shown, IgG1) VH: EVQLVESGGGLVKPGGSLRLSCAASGFTFSDYYMSWIRQAPGKGLEWVSYISSSGSTIYYADSVKGRFTISRDNAKNSLYLQMNSLRAEDTAVYYCARDDYNDAFDIWGQGTLVTVSS VL: DIQMTQSPSSLSASVGDRVTIACRAGQSIGTYLNWYQQKPGKAPKLLIYVASSLQSGVPSRFSGSGSGTEFTLTISSLQPEDFATYYCQQTASTLLTFGRGTKVEIK"
8,34700,"ADT1-7-19 (antibody, IgG1, V domains shown, IgG1) VH: EVQLVESGGGLVKPGGSLRLSCAASGFTFSDYYMSWIRQAPGKGLEWVSYISSSGSTIYYADSVKGRFTISRDNAKNSLYLQMNSLRAEDTAVYYCARIDYEDAFDIWGQGTLVTVSS VL: DIQMTQSPSSLSASVGDRVTIACRAGQSIGTYLNWYQQKPGKAPKLLIYVASSLQSGVPSRFSGSGSGTEFTLTISSLQPEDFATYYCQQSASELLTFGRGTKVEIK"
